From the nanobody polyreactivity screen of Harvey et al. (2022)

assay: yeast display, Sf9 membrane polyspecificity reagent, FACS + sequencing; frameworks hold sequencing errors
Outline: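 Nanobodies came from a synthetic yeast display library in Saccharomyces cerevisiae BJ5465, induced with galactose for 36–48 hours and stained for 1 hour at 4 °C with 10% biotinylated, detergent-solubilized Sf9 membrane reagent. Cells were enriched on streptavidin microbeads and then FACS-sorted, with low and high (top ~1%) gates set on anti-HA fluorescence for expression and streptavidin fluorescence for reagent binding. Each polyreactivity label reflects the gate a clone came from. Genes were amplified by colony PCR, sequenced by MiSeq 2 × 250 and filtered by CDR length.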

Sequence | polyreactivity (PSR sort gate)
QVQLVESGGGLVQAGGSLRLSCAASGRTFTRYAMGWYRQAPGKERELVAAISRSGGSTHYADSVKGRFTISRDKAKNTVYLQMNSLKPEDTAVYYCNAQQGRYWSAKGYDYWGQGTQVTVSS | high polyreactivity
QVQLVESGGGLVQAGGSLRLSCAASGFTCVRYAMGWYRPAPGKEREFVASISARGGNTFYADSVKGRFTISRDHAKNTVYLQMNSLKPEDTAVYYCAKRGPYGTGYGYWGQGTQLTVSS | high polyreactivity
QVQLVESGGGLVQAGGSLRLSCAASGFTLYPYAMGWYRPAPGKERELVAAISGSGGSTYYADSVKGRFTISRDNAKNTVYLQMNSLKPEDTAVYYCAARGPQQWWWDDDYWGQGTQVTVSS | high polyreactivity
QVQLVESGGGLVQAGGSLRLSCAASGRNFGYYTMGWYRQAPGKERELVAAITSSGGRTYYADSVKGRFTISRDNAKNTVYLQMNSLIPEVTAVYYCNKVTYGYAYWRYDGYYYWGQGTQVTVSS | low polyreactivity
QVQLVESGGGLVQAGGSLRLSCAASGRIFWTYAMGWYRQAPGKERELVASITWSGGSTYYADSVKGRFTISRDNAKNTVYLQMNSLKPEDTAVYYCAADRHTYWYDYWGQGTQVTVSS | low polyreactivity
QVQLVESGGGLVQAGGSLRLSCAASGFIFHRYAMGWYRQAPGKERELVASITRSGGSTYYADSVKGRFTISRDNAKNTVYLQMISLKPEDTAVYYCAAQLPSYYKYPRHDYWGQGTQVTVSS | high polyreactivity
QDKLVESGGGLVQEGGRLRLSCAASGRIFGNYAMGWYRQAPGKERELVAAIDLSGDSTYYADSVKGRFTISRDNAKYTVYLQMKSLKPEDTAVYYCAATDWFSEYYWGQGTQETVSS | low polyreactivity
QDQLVESGGGLVQAGGSLRLSCAASGRIFPVYAMGWYRQAPGKERELVATITSRTGRTYYADSVKGRFTISRDNAKITVYLQMNSLKPEDTAVYYCAARGYYSAPGYGYWGQGTQVTVSS | high polyreactivity
QVQLVESGGGLVQAGGSLRLSCAASGSIFGYYGMGWYRQAPGKERELVAAISYRGGYTYYADSVKGRFTISRDNAKNTVSLQMNSLKPEDTAVYYCNAGGRRRIFAHSSTGDYWGQGTQVTVSS | high polyreactivity
QVQLVESGGGLVQAGGSLRLSCAASGRTLRLYAMGWSRQAPGKERELVAAISSRGRTYYADSVKGRFTISRDNAKNTVYLQMNSLKPEDTAVYYCNTAQFLREDYWGQGTQVTVSS | high polyreactivity
QVQLVESGGGLVEAGGSLRLSCAASGRISQSNAMGWYRQAPGKESELVAAISWRGGSTYYADSVKGRFTISRDNAKNTVYLEMNSLKPEDTAVYYCGAKSWYAFYYRHPYDYWGQGTQVTVSS | high polyreactivity
QVQHVESGGGLVQAGGSLLLSCAASGSIFASYAMGWYRQAPGKEREFVASISRSGGRTYYADSVKGRFTISRDNAKNTVYLQMKSLKPEDTAVYYCAAQPSSYVYYRQPFHYWGQGTQVTVSS | high polyreactivity
QVQLVESGGGLVQAGGSLRLSCAASGFILTSYAMGWYRQAPGKERELVAAISSRGGRTYYADSVKGRFTISRDNAKNTVYLQMNSLKPEDTAVYFCNAVVYVVGDFDYWGQGTQVTVSS | high polyreactivity
QVQLVESGGGLVQAGGSLRLSCAASGRIFGIYAMGWYRQAPGKERELVASITDGTITNYADSVKGRFTISRDNAKNTVYLQMNSLKPVDTAVYYCAAGTQAHAYVVRPIEMDYWGQGTQVTVSS | low polyreactivity
QVQHVDSGVCLVQAGGSLRLSCDASGSIFGSYAMGWYRQPPGKERELVAAISKSVGNTYYADSVKGRFTISRDNAKNTVYLQMNSLKPEVTAVYYCAAYGFYRWRGYDYWGQGTQVTVSS | high polyreactivity
QVQLVDTGGGLVQAGGSLRLSCSASGSNFEYNDMVWYRHAHGKERELVAAISSGGDTNYADSVKGRFTISRDNAKNTVYLQKNSLKAEDTAVYYCNAEGLILYDYWGQGTQVTVSS | low polyreactivity
QVQLGESGGGLVEAGGSLRLSCAASGSTCKFYVMGWYRQAPGKERELVAAIAIGGSTNYADSVKGRFTISRDNAKNTVSVQMNSLKPEDTAVYYCAAELLQIHYYYVYLSPSFKCDYWGQGTQVTGSS | low polyreactivity
QVQLVESGGGLVQAGGSLRLSCAASGSTFTTYAMGWYRQATGKERELVASITWRGGSTYADSVKGRFTISRDNAKNTVYLEMNSLKPEDTAVYYCAAATRASAQFPRQRYYYWGQGTQVTVSS | high polyreactivity
QVQLVESGGGLVQAGGSLRLSCAASGRTFHYNAMGWYRQAPGKERELVAAISFNGGGTYYADSVKGRFTISRDNAKNTVYLQMNSLKPEDTAVYYCATDVPSRYDYWGQGTQVTVSS | low polyreactivity
QVQLVESGGGLVQAGGSLRLSCAASGSTFGSNALGWYREAPAKERELVAAIDANCGSTYYADSVKGRFTISRDNAKNTVYLQMHSQKQEDTAVYYCAAAGYCYYYVPNDYWGQGTQVTVSS | low polyreactivity
QVQLVESGGGLVQAGGSLRLSCAASGITLTVYTMGWYRQAPGKERKLVAAITYGGTSTYYADSVKGRFTISRDNAKNTVYLQMNSLKPEDTAVYYCNVAFGYSYRGRDYWGQGTQVTVSS | high polyreactivity
QVQLVESGGCLLQAGGSLSLSCAASGSTSPANTMGWYRQAPGKEREFVAGISRRGGRTYYADSVKGRFTISRDTAKNTVYLQMNSLKPEDTAVYYSATALIVRGPSRYEYWGHGTQVTVSS | high polyreactivity

Sequence | polyreactivity (PSR sort gate)
QVQLVESGGGLVQAGGSLRISCAASGFTFDTNAMGWYRQAPGKERELVAAISRIGGRTYADSVKGRFTISRDNAKNTVYLQMNSLKPEDTAVYYCADDRSSAYRWRSAGYYKYDYWGQGTQVTVSS | low polyreactivity
QVQLVESGGGLVQAGGSLRLSCAASGRIFSYYAMGWYRQAPGKERELVASISRSGGSTYYANSVKGRFTISRDNAKNTVYLQMNSLKPEDTAVYYCNAEARYTGFAYSYFNSDYWGQGTQVTVSS | low polyreactivity
QFQPVESGGGLVQAGGSLRLSCAASGFTFYRYAMGWYRPAHGKERELVAAITFSGSSTYYADSVKGRFTISRDNAKNTVYLQMNSLKEEDTAVYYCAAGGSFWYFSPRYGYWGQGTQVTVSS | high polyreactivity
QVQLVESGGGLVQAGGSLRLSCAASGSTFKQYAMGWYRQAPGKERELVADINVRDGGTYYADSVKGRFTISRDNAKNTVYLQMNSLKPEDTAVYYCAKDYYACYWEMDYWGQGTQVTVSS | low polyreactivity
QVQLVESGGGLVQAGGSLRLSCAASGLIFRWYAMAWYRQAPGKERELVAAISRRGGTTNYADSVKGRFTISRDNAKNTVYLQMNTLKPEDTAVYYCAADYQSVGGAEYDYWGQGTQVTVSS | high polyreactivity
QVQIVESGGGLVQAGGSLRLSCAASGSIFVQNAMGWYRQAPGKERELVAVINSGDSTNYADSVKGRFTISRDNAKNTVYLQMNSLKPEDTAVYYCAVDDVSYYYLRAYNYELSWYGSGLDYWGQGTQVTVSS | low polyreactivity
QVQLVESGGGLVQAGGSLRLSCAASGSIIAGYAMGWYRQAPGKERELVAAISQRGTSTYYADSVKGRFTISRDIAKNTVYLQMNSLKPEDTSVYYCAARVVSRMDYWGQGTQVTVSS | high polyreactivity
QVQLVESGGGLVQAGGSLRLSCAASGSIFTRNAMGWYRQAPGKERELVATIRKNGASTTYADSVKGRFTISRDNAKNTVYLQMNSLKQEDTAVYYCARDHHTKYNYWGQGTQVTVSS | low polyreactivity
QVQLVESGAGLVQAGGSLRLRCAASGSIFPGSALGWYRQARGKERELVAAITFGGAITYYADSVKGRFTISRDNAKNTVYLLMNSLKPEDSAVYYCAAKSPRILLDYWGQGTQVTVSS | low polyreactivity
QVQLVESGGGLVQAGGSLRLSCAASGSTFVPNAMGGSRPAPGKERELVAAISYSGGTTYYADSVKGRFTISRDNAKNTVYLQMNSLKPEDTAVYYCAARSKGAAAILDDYWGQGTQVTVSS | low polyreactivity
QVQLVESGGGLVQAGGSLRLSCAASGRTFENYAMGWYRQAPGKERELVAAISKSGGSTYYADSVKGRFTISRDNAKNTVYLQMNSLKPEDTAVYYCAARLPGYYGIGDYWGQGTQVTVSS | high polyreactivity
QVQLVESGGGLVQAGGSLRLSCAASGSIFVLYAMGWYRQAPGKERELVAAITTGGGTNYADSVKGRFTISRDNAKNTVYLQMNSLKPEDTAVYYCNADAYGTPEFTSYAVRYDYWGQGTQVTVSS | low polyreactivity
QVQLVESGGGLVQAGGSLRLSCAASGFTFVYYVMGRYRPAPGKERDLVAAINAGGGSTYYADSVKGRFTISRDNAKNTVYLQMNSLKPEDTSVYYCAARYHTSTRPCRNYWGQGTQVTVSS | high polyreactivity
QDQLVESGGGLVQAGGSLRLSCAASGRTFYLYAMGWYRQAPGKERELVARISWGGGRTYYADSVKGRFTISRDNAKNTVYLQMNSLKPEDTAVYYCNAQSPRGFTTTRQVYPLNGYWGQGTQVTVSS | high polyreactivity
QVQLVESGGGLVQAGGSLRLSCAASGSTFPVYAMGWYRQEPGKERELVAAITSGVSTNYADSVKGRFTISRDNAKNTVYLQMNSLKPEDTAVYYCAKDFGLLPIRDDYWGQGTQVTVSS | low polyreactivity
QVQHVESGGGLVQAGGSLRLSCAASGFTFYGNALGWYRQAPGKERELVAAITSGGSTYYADSVKGRFTISRDNAKNTVYLQMNSLKPDDTAVYYCAADEVLYGYEYWGQGTQVTVSS | low polyreactivity
QVQLVESGGGLVQAGGSLRLSCAASGRIFRWYAMGWYRQAPGKERELVAAITRSGSTTYYADSVKGRFTISRDNAKNAVYLQMNSLKPEDTAVSYSAAGYRGGYGWSVRMDYWGQGTQVTVSS | high polyreactivity
QVQLVESGGGLVQAGGSLRLSCAASGFIFVYYAMGWYRQAPGKERELVAAISGHGGRTYYADSVKGRFTISRDNAKNTVYLQMNSLKPEDTAVYYCAALLYWRGYGYNYWGQGTQVTVSS | high polyreactivity
QVQLVESGGGLVQAGGSLRLSCAASGLIFNTYAMGWYRQAPGKERELVAAITDGGGTNYADSVKGRFTISRDNAKNTVYLQMNSLKPEDTAVYYCAARLASWPLTYDFQWYEYWVQGTQVTVSS | low polyreactivity
QVQLVESGGGLVQAGGSLRLSCAASGSIFTYYAMGWYRQAPGKEMELVARIDWNGGSTRYADSVKGRFTISRDNAKNTVYLQMNSLKPEYTAVYYCAADWDYAPYFDPDLLDYWGQGTQVTVSS | low polyreactivity
QVQLVESGGGLVQAGGSLRLSCAASGRIFKGYAMGWYRQAPGKERELVAAITWRGGTTYYADSVKGRFTISRDNAKNTVYLQMNSLKPEDTAVYYCATTRYPRSYQEFGYWGQGTQVTVSS | high polyreactivity
